This is an account of results in publication PMC5645086, “Analysis of the interaction of Plexin-B1 and Plexin-B2 with Rnd family proteins” (PLoS ONE, 2017).

One data set deals with Rnd2 (Homo sapiens) (UniProt P52198). The settings on record: cited from earlier work.
Data set [1] deals with T1, Rnd1 GTP-binding domain (residues 1-191) (UniProt Q92730 1-191).
T1 construct: source: E. coli Rosetta 2 (DE3), purified (Nickel-NTA, TEV cleavage; in some cases ion exchange or size exclusion chromatography); not shown: His6, N-terminal, cleaved
T1 sequence (looked up): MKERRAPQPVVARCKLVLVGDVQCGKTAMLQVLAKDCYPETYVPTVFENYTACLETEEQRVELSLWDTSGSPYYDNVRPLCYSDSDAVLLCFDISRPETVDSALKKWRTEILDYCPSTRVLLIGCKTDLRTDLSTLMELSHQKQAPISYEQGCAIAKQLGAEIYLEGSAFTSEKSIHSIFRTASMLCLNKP
Put plainly: ITC; Plexin-B-RBD (400-600 uM, syringe) titrated into Rnd protein (40-60 uM, cell); 25°C; buffer 2: 50 mM sodium phosphate pH 7.0, 150 mM NaCl, 4 mM MgCl2, 3 mM DTT; independent binding sites model. As to conditions: both partners purified.

Data set [2] deals with T2, Rnd2 GTP-binding domain (residues 2-184) (UniProt P52198 2-184).
T2 construct: source: E. coli BL21 (DE3), purified (Nickel-NTA, TEV cleavage; in some cases ion exchange or size exclusion chromatography); not shown: His6, N-terminal, cleaved
T2 sequence (looked up): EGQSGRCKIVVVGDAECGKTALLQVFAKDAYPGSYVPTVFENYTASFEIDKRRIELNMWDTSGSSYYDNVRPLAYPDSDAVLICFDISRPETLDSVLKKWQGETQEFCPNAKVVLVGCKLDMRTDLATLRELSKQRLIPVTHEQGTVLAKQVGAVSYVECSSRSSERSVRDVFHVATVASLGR
Described as above. As to conditions: both partners purified.

In data set [3] the target is T3, Rnd3 GTP-binding domain (residues 16-200), wild type (UniProt P61587 16-200).
T3 construct: source: E. coli BL21 (DE3), purified (Nickel-NTA, TEV cleavage; in some cases ion exchange or size exclusion chromatography); not shown: His6, N-terminal, cleaved
T3 sequence (looked up): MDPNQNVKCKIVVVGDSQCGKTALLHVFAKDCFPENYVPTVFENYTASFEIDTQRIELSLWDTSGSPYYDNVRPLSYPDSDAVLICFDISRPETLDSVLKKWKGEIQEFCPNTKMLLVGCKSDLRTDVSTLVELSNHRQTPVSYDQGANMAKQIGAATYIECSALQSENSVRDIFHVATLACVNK
The description is as above. The settings on record: both partners purified.

The target of data set [4] is T4, Rnd3-F124Y (GTP-binding domain, residues 16-200) (UniProt P61587 16-200, F124Y).
T4 construct: source: E. coli Rosetta 2 (DE3), purified in the same way as wild type Rnd3; not shown: His6, N-terminal, cleaved
T4 sequence (looked up): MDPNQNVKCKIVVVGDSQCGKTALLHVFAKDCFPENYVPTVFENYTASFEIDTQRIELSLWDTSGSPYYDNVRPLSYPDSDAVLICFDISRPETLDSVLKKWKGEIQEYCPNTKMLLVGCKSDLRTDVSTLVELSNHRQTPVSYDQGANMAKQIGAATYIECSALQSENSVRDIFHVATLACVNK
The description is as above. As to conditions: both partners purified.

Data set [5] addresses T5, Rnd3-Y60A (GTP-binding domain, residues 16-200) (UniProt P61587 16-200, Y60A).
T5 construct: source: E. coli BL21 (DE3), purified in the same way as wild type Rnd3; not shown: His6, N-terminal, cleaved
T5 sequence (looked up): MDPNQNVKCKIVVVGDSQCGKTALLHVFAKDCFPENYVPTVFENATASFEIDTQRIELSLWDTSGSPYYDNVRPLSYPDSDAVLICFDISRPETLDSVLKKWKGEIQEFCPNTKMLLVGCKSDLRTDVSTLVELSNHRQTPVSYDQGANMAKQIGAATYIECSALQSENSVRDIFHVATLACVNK
The data set is described as above. The settings on record: both partners purified.

The target in data set [6] is T6, Rnd3-N86R (GTP-binding domain, residues 16-200) (UniProt P61587 16-200, N86R).
T6 construct: source: E. coli BL21 (DE3), purified in the same way as wild type Rnd3; not shown: His6, N-terminal, cleaved
T6 sequence (looked up): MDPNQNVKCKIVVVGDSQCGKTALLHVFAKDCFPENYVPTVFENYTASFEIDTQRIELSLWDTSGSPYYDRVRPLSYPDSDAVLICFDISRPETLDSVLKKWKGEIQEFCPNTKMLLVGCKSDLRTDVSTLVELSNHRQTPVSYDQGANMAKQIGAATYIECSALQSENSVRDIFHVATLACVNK
The description is as above. The settings on record: both partners purified.

Data set [7] deals with the molecule itself. The data set can be described thus: ITC; control dilution: Plexin-B1-RBD titrated into buffer alone, same conditions as the binding titrations; dimer to monomers.
The target in data set [8] is T7, Rnd1 GTP-binding domain (residues 1-191) (UniProt Q92730 1-191).
T7 construct: Cloned into pETDuet-1; tag removed with TEV protease; source: E. coli Rosetta 2 (DE3), purified (Nickel-NTA chromatography, TEV cleavage; in some cases ion exchange or size exclusion chromatography); not shown: His6, N-terminal, cleaved
T7 sequence (looked up): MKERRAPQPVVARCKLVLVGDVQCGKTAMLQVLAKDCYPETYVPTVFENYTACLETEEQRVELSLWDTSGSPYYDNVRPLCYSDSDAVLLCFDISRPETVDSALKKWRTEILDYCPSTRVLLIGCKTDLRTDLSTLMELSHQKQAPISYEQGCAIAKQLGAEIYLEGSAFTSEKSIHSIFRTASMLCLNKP
The data set can be described thus: ITC; Plexin-B1-RBD in the syringe titrated into Rnd1 in the cell; low salt buffer 1: 50 mM sodium phosphate pH 7.0, 50 mM NaCl, 4 mM MgCl2, 3 mM DTT, 25°C; independent binding sites model; mean and SD of 5 fitted binding curves. As to conditions: both partners purified.

Rnd2 (Homo sapiens), sequence (P52198 1-224): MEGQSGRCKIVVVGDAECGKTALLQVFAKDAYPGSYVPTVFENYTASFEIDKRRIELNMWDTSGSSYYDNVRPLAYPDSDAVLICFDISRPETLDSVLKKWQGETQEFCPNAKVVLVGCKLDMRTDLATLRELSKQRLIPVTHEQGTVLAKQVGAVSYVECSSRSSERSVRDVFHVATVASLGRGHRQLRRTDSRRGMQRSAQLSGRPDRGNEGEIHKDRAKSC

Turning to Plexin-B1 RBD (from UniProt O43157), the Kd in the data set with Rnd2 (Homo sapiens) is over 20 µM.

B1: Plexin-B2-RBD (Rho-binding domain of Plexin-B2, residues 1452-1562) (domain or fragment, UniProt O15031 1452-1562, looked up)
chain: GLLGDDVEYAPLTVSVIVQDEGVDAIPVKVLNCDTISQVKEKIIDQVYRGQPCSCWPRPDSVVLEWRPGSTAQILSDLDLTSQREGRWKRVNTLMHYNVRDGATLILSKVG
notes: Vector pETDuet-1; tag removed with TEV protease; source: E. coli BL21 (DE3), purified (Nickel-NTA, TEV cleavage; in some cases ion exchange or size exclusion chromatography); not shown: His6, N-terminal, cleaved
Turning to B1, the dissociation constant (Kd) in [1] turned out to be 11.1 µM; in data set [2], 4.93 µM; in data set [3], 3.01 µM; in [4], 2.97 µM; in data set [5], 3.06 µM; in data set [6] it was 3.86 µM. Besides, the dH in data set [1] was -6.67 kcal/mol; in data set [2], -4.29 kcal/mol; in data set [3], -9.33 kcal/mol; in data set [4], -7.73 kcal/mol; in data set [5] it was -5.64 kcal/mol; in data set [6], -7.37 kcal/mol. The “stoichiometry N” value in data set [1] was 1.05; in data set [2], 1.15; in data set [3] it was 1.23; in [4], 1.14; in data set [5] it was 1.06; in [6] it was 1.13.

B2: Plexin-B1-RBD (Rho-binding domain of Plexin-B1, residues 1746-1851), histidine-tagged (domain or fragment, UniProt O43157 1746-1851, looked up)
chain: YRPLTLNALLAVGPGAGEAQGVPVKVLDCDTISQAKEKMLDQLYKGVPLTQRPDPRTLDVEWRSGVAGHLILSDEDVTSEVQGLWRRLNTLQHYKVPDGATVALVP
notes: A TEV protease site lies between the hexahistidine tag and the domain; Vector pETDuet-1; also called HisPlexin-B1; Plexin-B-RBD; source: E. coli BL21 (DE3), purified (Nickel-NTA; in some cases ion exchange or size exclusion chromatography); not shown: His6, N-terminal, kept
Turning to B2, the binding result in data set [7] is given as “binds”. Besides, the Kd in data set [1] came to 2.37 µM; in data set [2] it was 7.64 µM; in [3], 6.62 µM; in data set [4], 4.6 µM; in [5], 7.26 µM; in [6], 8.12 µM. Moreover, the dH is -15.6 kcal/mol in data set [1]; -7.33 kcal/mol in data set [2]; -9.73 kcal/mol in data set [3]; -8.65 kcal/mol in data set [4]; -2.76 kcal/mol in data set [5]; -5.53 kcal/mol in data set [6]. The “stoichiometry N” value in data set [1] came to 0.85; in data set [2], 1.16; in data set [3], 1.07; in [4] it was 1.04; in data set [5], 1.02; in data set [6], 0.91.

B3: Plexin-B1-RBD (Rho-binding domain of Plexin-B1, residues 1746-1851), histidine-tagged (domain or fragment, UniProt O43157 1746-1851, looked up)
chain: YRPLTLNALLAVGPGAGEAQGVPVKVLDCDTISQAKEKMLDQLYKGVPLTQRPDPRTLDVEWRSGVAGHLILSDEDVTSEVQGLWRRLNTLQHYKVPDGATVALVP
notes: A TEV protease cleavage site lies between the hexahistidine tag and the domain; removal of the tag was inefficient for Plexin-B1-RBD, so the tag was kept; Cloned into pETDuet-1; also called HisPlexin-B1; source: E. coli BL21 (DE3), purified (Nickel-NTA chromatography; in some cases ion exchange or size exclusion chromatography); not shown: His6, N-terminal, kept
With B3, in data set [8], the Kd came out at 5.37 µM and the “stoichiometry N” value is 0.94.
